Results: publication PMC3658131

Target: Bd-cys-S-fluorescein conjugate (Staphylococcus aureus)
Experiment: ELISA

Substance: HRP-conjugated guinea pig IgG (antibody)
- net absorbance at 405 nm (net absorbance (405 nm)): 0.91

Substance: HRP-conjugated rabbit IgG (antibody)
- net absorbance at 405 nm (net absorbance (405 nm)): 1.13
